# B1: bivalent bispecific antibody with B2 structure (H2+L2) (bispecific antibody)
# heavy: ASTKGPSVFPLAPSSKSTSGGTAALGCLVKDYFPEPVTVSWNSGALTSGVHTFPAVLQSSGLYSLSSVVTVPSSSLGTQTYICNVNHKPSNTKVDKKVEPKSCDKEVQLVESGGGLVQPGGSLRLSCAASYFPFSDSWIHWVRQAPGKGLEWVAWISPYGGSSYYADSVQDRFTISADTSKNTAYLQMNSLRAEDTAVYYCAKRHWPGGFDHWGQGTLVTVSSGGGGSGGGGSGGGGSASDIQMTQSPSSLSASVGDRVTITCSASQDVTTAVAWYQQKPGKAPKLLIYSASFPYRGVPSRFSGSGSGTDFTLTISSLQPEDFATYYCQQYMYHPSTFGQGTKVEIK
# light: QVQLVQSGAEVKKPGASVKVSCKASGYTFTNYVLHWVRQAPGQRLEWMGYFNPYNDDSKYNEKFKGRVTITRDTSASTAYMELSSLRSEDTAVYYCARGGYYSMDYWGQGTLVTVSSGGGGSGGGGSGGGGSASDIVMTQTPLSLPVTPGQPASISCRASQSLAHSNGYTYLQWYLQKPGQSPQLLIYKVSKRFSGVPDRFSGSGSGTDFTLKISRVEAEDVGVYYCSQSTHVPYTFGQGTKVEIKRTVAAPSVFIFPPSDEQLKSGTASVVCLLNNFYPREAKVQWKVDNALQSGNSQESVTEQDSKDSTYSLSSTLTLSKADYEKHKVYACEVTHQGLSSPVTKSFNRGEC
# notes: The two chains form a heterodimer through a CL-hinge disulfide bond, and there is no Fc; also called B2 bispecific antibody; preferred antibody B2
# B2: B4 (bispecific antibody)
# chain 1: QVQLVQSGAEVKKPGASVKVSCKASGYTFTNYVLHWVRQAPGQRLEWMGYFNPYNDDSKYNEKFKGRVTITRDTSASTAYMELSSLRSEDTAVYYCARGGYYSMDYWGQGTLVTVSSGGGGSGGGGSGGGGSASDIVMTQTPLSLPVTPGQPASISCRASQSLAHSNGYTYLQWYLQKPGQSPQLLIYKVSKRFSGVPDRFSGSGSGTDFTLKISRVEAEDVGVYYCSQSTHVPYTFGQGTKVEIKASTKGPSVFPLAPSSKSTSGGTAALGCLVKDYFPEPVTVSWNSGALTSGVHTFPAVLQSSGLYSLSSVVTVPSSSLGTQTYICNVNHKPSNTKVDKKVEPKSCDK
# chain 2: RTVAAPSVFIFPPSDEQLKSGTASVVCLLNNFYPREAKVQWKVDNALQSGNSQESVTEQDSKDSTYSLSSTLTLSKADYEKHKVYACEVTHQGLSSPVTKSFNRGECEVQLVESGGGLVQPGGSLRLSCAASYFPFSDSWIHWVRQAPGKGLEWVAWISPYGGSSYYADSVQDRFTISADTSKNTAYLQMNSLRAEDTAVYYCAKRHWPGGFDHWGQGTLVTVSSGGGGSGGGGSGGGGSASDIQMTQSPSSLSASVGDRVTITCSASQDVTTAVAWYQQKPGKAPKLLIYSASFPYRGVPSRFSGSGSGTDFTLTISSLQPEDFATYYCQQYMYHPSTFGQGTKVEIK
# notes: also called B4 structure; H4+L4
# B3: B1 (bispecific antibody)
# chain 1: ASTKGPSVFPLAPSSKSTSGGTAALGCLVKDYFPEPVTVSWNSGALTSGVHTFPAVLQSSGLYSLSSVVTVPSSSLGTQTYICNVNHKPSNTKVDKKVEPKSCDKQVQLVQSGAEVKKPGASVKVSCKASGYTFTNYVLHWVRQAPGQRLEWMGYFNPYNDDSKYNEKFKGRVTITRDTSASTAYMELSSLRSEDTAVYYCARGGYYSMDYWGQGTLVTVSSGGGGSGGGGSGGGGSASDIVMTQTPLSLPVTPGQPASISCRASQSLAHSNGYTYLQWYLQKPGQSPQLLIYKVSKRFSGVPDRFSGSGSGTDFTLKISRVEAEDVGVYYCSQSTHVPYTFGQGTKVEIK
# chain 2: EVQLVESGGGLVQPGGSLRLSCAASYFPFSDSWIHWVRQAPGKGLEWVAWISPYGGSSYYADSVQDRFTISADTSKNTAYLQMNSLRAEDTAVYYCAKRHWPGGFDHWGQGTLVTVSSGGGGSGGGGSGGGGSASDIQMTQSPSSLSASVGDRVTITCSASQDVTTAVAWYQQKPGKAPKLLIYSASFPYRGVPSRFSGSGSGTDFTLTISSLQPEDFATYYCQQYMYHPSTFGQGTKVEIKRTVAAPSVFIFPPSDEQLKSGTASVVCLLNNFYPREAKVQWKVDNALQSGNSQESVTEQDSKDSTYSLSSTLTLSKADYEKHKVYACEVTHQGLSSPVTKSFNRGEC
# notes: also called B1 structure; H1+L1
# B4: bivalent bispecific antibody with FV1 structure (H5+L5+H6+L6) (bispecific antibody, human IgG1, kappa)
# heavy 1: not shown
# light 1: DIQMTQSPSSLSASVGDRVTITCSASQDVTTAVAWYQQKPGKAPKLLIYSASFPYRGVPSRFSGSGSGTDFTLTISSLQPEDFATYYCQQYMYHPSTFGQGTKVEIKRTVAAPSVFIFPPSDEQLKSGTASVVCLLNNFYPREAKVQWKVDNALQSGNSQESVTEQDSKDSTYSLSSTLTLSKADYEKHKVYACEVTHQGLSSPVTKSFNRGEC
# heavy 2: not shown
# light 2: DVVMTQTPLSLPVSLGDQASISCRSSQSLVHSKGNTYLHWYLQKPGQSPKLLIYRVSNRFSGVPDRFSGSGSGTDFTLKISRVEAEDLGVYFCSQSTHVPFTFGSGTKLEIKLGGC
# notes: It is IgG1-based with knob-into-hole CH3 domains; also called FV1 bispecific antibody
# B5: FV2 (bispecific antibody, human IgG1, kappa)
# chain 1: not shown
# chain 2: B4 light 1
# chain 3: not shown
# chain 4: DVVMTQTPLSLPVSLGDQASISCRSSQSLVHSKGNTYLHWYLQKPGQSPKLLIYRVSNRFSGVPDRFSGSGSGTDFTLKISRVEAEDLGVYFCSQSTHVPFTFGSGTKLEIKSGGGGSASLGGC
# notes: also called FV2 structure; H5+L5+H7+L7
# B6: FV3 (bispecific antibody, human IgG1, kappa)
# chain 1: not shown
# chain 2: B4 light 1
# chain 3: not shown
# chain 4: DVVMTQTPLSLPVSLGDQASISCRSSQSLVHSKGNTYLHWYLQKPGQSPKLLIYRVSNRFSGVPDRFSGSGSGTDFTLKISRVEAEDLGVYFCSQSTHVPFTFGSGTKLEIKGGGGSGGGGSGGGGSASLGGC
# notes: also called FV3 structure; H5+L5+H8+L8
# B7: FV4 (bispecific antibody, human IgG1, kappa)
# chain 1: not shown
# chain 2: B4 light 1
# chain 3: not shown
# chain 4: B5 chain 4
# notes: also called FV4 structure; H5+L5+H9+L7
# Legend:
# [1] = target: T1, Human PD-L1-His (human, UniProt Q9NZQ7 19-238, limits assumed); assay: SPR, Biacore T200, PD-L1-His coupled to chip, antibody as analyte
# T1 construct: not shown: His tag
# Protocol: (§1) The affinities of antibodies with B2 structure and with FV1 structure were detected by Biacore T200 instrument. The specific protocols were as follows. Human PD-L1-His and human CD47-His were coupled to CMS biosensor chip (GE), and then the antibodies of different concentrations were flowed through the chip at a flow rate of 30 μL/min. The binding between the candidate antibody and antigen was performed with a binding time of 120 s and a dissociation time of 300 s. The kinetic fitting was performed using BIAevalution software (GE), and the results of affinity constants were obtained as shown in Table 2 and Table 3.
# [2] = target: T2, Human CD47-His (constructed by GeneScience) (human, UniProt Q08722 19-139); assay: SPR, Biacore T200, CD47-His coupled to chip, antibody as analyte
# T2 construct: also called hCD47
# Protocol: as §1
# [3] = target: T2, Human CD47-His (constructed by …); assay: bridging ELISA of Example 3: PD-L1-mFc coated, purified antibody titrated, CD47-His as second antigen; paragraph 132 prints the value without a unit, the unit is from the sheet's axis Antibody(ug/ml)
# Protocol: (§2) 1. Coating the first antigen: Human PD-L1-mFc (constructed by GeneScience, SEQ ID NO: 22) was diluted with PBS to 1 μg/mL, and then added to a 96-well microtiter plate at 50 μL per well and incubated overnight at 4° C.
# (§3) 4. Adding the second antigen: Human CD47-His (constructed by GeneScience, SEQ ID NO: 23) was diluted with PBS to 10 μg/mL, and then added to the 96-well microtiter plate at 50 μL per well and incubated at 25° C. for 1 hour.
# (§4) 8. Detection: After terminating the reaction, the microtiter plate was immediately put into the microplate reader. The OD value at 450 nm was measured, and the original data was saved for sorting.
# [4] = target: Human PD-L1-mFc (constructed by GeneScience) (human); assay: as above
# Protocol: as §2, §3, §4
# [5] = target: T3, human PD-L1 (human, UniProt Q9NZQ7 19-238, limits assumed); assay: ELISA of transient expression product; the sheet names no antigen and shows one curve per antibody; format not stated for this figure, read as the PD-L1/CD47 bridging ELISA of Example 3
# T3 construct: also called hPD-L1
# [6] = target: T4, human CD47 (human, UniProt Q08722 19-139, limits assumed); assay: as above
# T4 construct: also called hCD47
# [7] = target: T3, human PD-L1; assay: ELISA of transient expression product; no antigen named on the sheet; PD-L1 Ab and CD47 Ab are both flat, so read as the PD-L1/CD47 bridging ELISA of Example 3; no unit beside the EC50, unit taken from the axis Antibody(ug/ml)
# [8] = target: T4, human CD47; assay: as above
# T1 sequence (Q9NZQ7 19-238 limits assumed): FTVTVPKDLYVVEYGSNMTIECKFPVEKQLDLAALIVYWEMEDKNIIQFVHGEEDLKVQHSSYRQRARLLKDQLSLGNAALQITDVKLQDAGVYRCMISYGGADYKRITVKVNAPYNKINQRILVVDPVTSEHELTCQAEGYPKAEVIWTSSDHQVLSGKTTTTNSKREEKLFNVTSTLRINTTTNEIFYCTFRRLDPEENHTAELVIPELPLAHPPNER
# T3 sequence (Q9NZQ7 19-238 limits assumed): as above
# T2 sequence (Q08722 other isoform, or with tags, fused parts or gaps limits assumed): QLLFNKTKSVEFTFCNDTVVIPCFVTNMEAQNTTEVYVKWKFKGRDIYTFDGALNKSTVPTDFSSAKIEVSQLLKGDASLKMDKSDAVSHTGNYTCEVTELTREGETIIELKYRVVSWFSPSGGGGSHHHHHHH
# T4 sequence (Q08722 19-139 limits assumed): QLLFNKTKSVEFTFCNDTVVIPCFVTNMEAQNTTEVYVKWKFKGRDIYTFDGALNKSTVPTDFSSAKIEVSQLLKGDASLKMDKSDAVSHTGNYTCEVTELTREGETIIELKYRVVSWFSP
# Sequence of Human PD-L1-mFc (constructed by GeneScience) (human) (chain, as listed by the source limits assumed): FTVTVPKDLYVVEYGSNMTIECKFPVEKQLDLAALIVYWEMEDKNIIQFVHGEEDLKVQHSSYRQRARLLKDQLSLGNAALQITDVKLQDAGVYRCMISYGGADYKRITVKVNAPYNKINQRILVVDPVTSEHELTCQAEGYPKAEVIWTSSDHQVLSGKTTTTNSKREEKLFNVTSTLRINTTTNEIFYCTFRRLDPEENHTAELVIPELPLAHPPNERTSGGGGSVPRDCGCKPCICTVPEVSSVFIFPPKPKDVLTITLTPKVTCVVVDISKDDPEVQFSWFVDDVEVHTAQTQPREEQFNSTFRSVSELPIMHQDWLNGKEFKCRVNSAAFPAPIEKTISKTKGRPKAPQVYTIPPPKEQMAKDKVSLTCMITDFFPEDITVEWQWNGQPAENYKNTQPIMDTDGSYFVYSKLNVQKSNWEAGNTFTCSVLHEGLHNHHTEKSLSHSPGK
binder,measurement,setting,value
B1,Kd,[1],0.109 nM
same,koff,[1],4.28e-05 s⁻¹
same,kon,[1],395000 M⁻¹ s⁻¹
same,Kd,[2],25.8 nM
same,EC50,[3],0.564 µg/mL
same,EC50,[4],0.564 µg/mL
B2,EC50 (read off the curve),[5],~0.09 µg/mL
same,EC50 (read off the curve),[6],~0.09 µg/mL
B3,EC50 (read off the curve),[5],~0.2 µg/mL
same,EC50 (read off the curve),[6],~0.2 µg/mL
B4,Kd,[1],0.271 nM
same,koff,[1],0.000119 s⁻¹
same,kon,[1],440000 M⁻¹ s⁻¹
same,EC50,[7],0.0887 µg/mL
same,EC50,[8],0.0887 µg/mL
same,Kd,[2],15 nM
same,EC50,[3],1.66 µg/mL
same,EC50,[4],1.66 µg/mL
B5,EC50,[7],0.186 µg/mL
same,EC50,[8],0.186 µg/mL
B6,EC50,[7],0.179 µg/mL
same,EC50,[8],0.179 µg/mL
B7,EC50,[7],0.146 µg/mL
same,EC50,[8],0.146 µg/mL
